Test results reported in US20210395761.

Experiments:
[1] = tested on: T1, SF370.1 serine recombinase (SF370.1-HA-NLS) (Streptococcus pyogenes phage 370.1); test: cell_activity; conditions: lettuce; 1 colony without recombinase
T1 sequence: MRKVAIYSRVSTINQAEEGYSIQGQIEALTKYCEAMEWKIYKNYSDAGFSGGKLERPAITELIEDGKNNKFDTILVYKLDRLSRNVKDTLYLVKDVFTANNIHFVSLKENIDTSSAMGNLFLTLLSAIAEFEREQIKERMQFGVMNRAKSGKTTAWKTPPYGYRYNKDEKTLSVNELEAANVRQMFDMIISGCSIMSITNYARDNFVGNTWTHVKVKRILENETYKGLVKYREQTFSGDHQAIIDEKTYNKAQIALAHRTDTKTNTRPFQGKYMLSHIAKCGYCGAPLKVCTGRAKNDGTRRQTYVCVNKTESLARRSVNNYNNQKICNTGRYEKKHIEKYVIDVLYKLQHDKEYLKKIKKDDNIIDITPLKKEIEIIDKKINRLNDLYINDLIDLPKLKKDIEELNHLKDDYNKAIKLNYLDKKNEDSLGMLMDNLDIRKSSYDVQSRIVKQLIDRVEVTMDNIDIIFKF

[2] = target: SPβc2 serine recombinase (SPβc2-HA-NLS) (Bacillus subtilis phage SPβc2) (UniProt O32006); test: cell_activity; conditions: lettuce initial screen; attP gave 27; background level
Sequence of SPβc2 serine recombinase (SPβc2-HA-NLS) (Bacillus subtilis phage SPβc2) (O32006 whole entry): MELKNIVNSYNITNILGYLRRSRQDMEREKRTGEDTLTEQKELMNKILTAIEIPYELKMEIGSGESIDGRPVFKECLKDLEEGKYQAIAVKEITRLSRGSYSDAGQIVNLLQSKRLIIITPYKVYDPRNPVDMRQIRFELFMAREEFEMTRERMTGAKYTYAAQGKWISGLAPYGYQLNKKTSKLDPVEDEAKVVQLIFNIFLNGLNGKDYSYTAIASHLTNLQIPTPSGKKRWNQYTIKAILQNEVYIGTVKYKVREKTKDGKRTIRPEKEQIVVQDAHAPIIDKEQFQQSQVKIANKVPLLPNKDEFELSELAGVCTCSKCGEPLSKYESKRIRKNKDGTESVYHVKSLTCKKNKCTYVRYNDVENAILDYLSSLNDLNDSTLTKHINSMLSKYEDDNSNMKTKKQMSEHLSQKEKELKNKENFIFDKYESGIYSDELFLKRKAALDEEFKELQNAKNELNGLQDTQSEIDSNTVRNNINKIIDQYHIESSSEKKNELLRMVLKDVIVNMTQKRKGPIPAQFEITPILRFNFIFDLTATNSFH

Substance	activity (GFP+ Kan resistant colonies) [1]	activity [2] [GFP+ colony]
ATTTTTGTATCCAGTTCAATGGATATTTGATATAATCGTCTTAAAAAGGAGGTCGTGAAATGGATAAAAAAATACAGCGTTTTTCATGTACAACTATACTAGTTGTAGTGCCTAAATAATGCTTTTAAAACTTAAAAATAATATCGATGTTATCCATAGTAACCTCGACTCTATCTATCAATTGCTTAACTATCCTAGAT (double strand) [SF370 attP]	4	
siteless reporter plasmid		1
